Reference: the supplement of paper PMC9112550, “Optimization of the antimicrobial peptide Bac7 by deep mutational scanning” (BMC Biology, 2022)

Tested on: Escherichia coli TOP10
Assay: shrunken log2 fold change of peptide-encoding DNA abundance (4.5 h post-induction vs induction); higher = less antimicrobial activity (less host growth inhibition)
Conditions: time post-induction: 4.5 h; library: site-saturation at positions 5, 18, 19, 20
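Further: peptides expressed intracellularly from a pBAD plasmid library in pooled LB shake-flask culture, induced with 0.3% L-arabinose, DNA abundance read by NGS, three biological replicates, DESeq2 with apeglm shrinkage.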

Row | Sequence | shrunken log2 fold change
1 | RRIRMRPPRLPRPRPRPNCKPRP | 0.102
2 | RRIRYRPPRLPRPRPRPLMTPRP | -0.181
3 | RRIRMRPPRLPRPRPRPKPTPRP | 0.266
4 | RRIRTRPPRLPRPRPRPDICPRP | 0.0407
5 | RRIRWRPPRLPRPRPRPQLRPRP | 0.0178
6 | RRIRPRPPRLPRPRPRPGDSPRP | 0.035
7 | RRIRERPPRLPRPRPRPVRLPRP | 0.0832
8 | RRIRYRPPRLPRPRPRPCECPRP | -0.0717
9 | RRIRQRPPRLPRPRPRPMSTPRP | -0.0212
10 | RRIRKRPPRLPRPRPRPLSWPRP | 0.826
11 | RRIRKRPPRLPRPRPRPCFLPRP | -0.0702
12 | RRIRRRPPRLPRPRPRPPEGPRP | 0.657
13 | RRIRVRPPRLPRPRPRPDTAPRP | -0.164
14 | RRIRARPPRLPRPRPRPNLCPRP | 0.0317
15 | RRIRLRPPRLPRPRPRPFRQPRP | 0.0662
16 | RRIRGRPPRLPRPRPRPKPWPRP | 0.914
17 | RRIRIRPPRLPRPRPRPMMMPRP | -0.227
18 | RRIRMRPPRLPRPRPRPISAPRP | 0.0396
19 | RRIRYRPPRLPRPRPRPSCEPRP | -0.586
20 | RRIRNRPPRLPRPRPRPGWCPRP | 2.24
21 | RRIRLRPPRLPRPRPRPPVTPRP | 0.353
22 | RRIRWRPPRLPRPRPRPGTHPRP | 0.158
23 | RRIRARPPRLPRPRPRPPNMPRP | -0.0722
24 | RRIRIRPPRLPRPRPRPVLYPRP | -0.598
25 | RRIRGRPPRLPRPRPRPILGPRP | -0.0749

Row | Sequence | shrunken log2 fold change
26 | RRIRGRPPRLPRPRPRPFGSPRP | 0.081
27 | RRIRFRPPRLPRPRPRPCSEPRP | 0.0135
28 | RRIRMRPPRLPRPRPRPKWKPRP | 0.195
29 | RRIRTRPPRLPRPRPRPPWIPRP | 0.161
30 | RRIRMRPPRLPRPRPRPQVNPRP | 0.166
31 | RRIRWRPPRLPRPRPRPEIGPRP | 0.0225
32 | RRIRLRPPRLPRPRPRPHKAPRP | -0.0451
33 | RRIRPRPPRLPRPRPRPNPRPRP | 0.596
34 | RRIRWRPPRLPRPRPRPTYFPRP | -0.359
35 | RRIRYRPPRLPRPRPRPTPDPRP | -0.145
36 | RRIRERPPRLPRPRPRPDYRPRP | -0.285
37 | RRIRWRPPRLPRPRPRPVQKPRP | 0.0836
38 | RRIRNRPPRLPRPRPRPPTLPRP | -0.204
39 | RRIRGRPPRLPRPRPRPVRNPRP | 0.308
40 | RRIRGRPPRLPRPRPRPYMPPRP | -0.191
41 | RRIRRRPPRLPRPRPRPQLTPRP | 0.122
42 | RRIRSRPPRLPRPRPRPGPKPRP | 1.07
43 | RRIRRRPPRLPRPRPRPKQAPRP | 0.908
44 | RRIRKRPPRLPRPRPRPLPDPRP | -0.105
45 | RRIRARPPRLPRPRPRPEGFPRP | 0.566
46 | RRIRRRPPRLPRPRPRPMVYPRP | 0.119
47 | RRIRPRPPRLPRPRPRPRAQPRP | 0.33
48 | RRIRNRPPRLPRPRPRPFCSPRP | -0.0765
49 | RRIRQRPPRLPRPRPRPVTQPRP | -0.378
50 | RRIRSRPPRLPRPRPRPWHEPRP | -0.103
